Data from publication PMC2570331.

Tests used:
Assay in all cases: split reporter (BiFC, NanoBiT); CFP 1-158 on the N-terminus of α12.2 (WT, Bdel1 or Bdel2), CFP 159-238 on the C-terminus of β3core; HEK-293 cells co-transfected with α2δ1 and an RFP (mCherry or DsRed-Monomer, pooled); median of the cyan/red ratio of single cells
[1] = molecular target: Bdel2 α12.2 tagged with the CFP 1–158 fragment (rat)
[2] = molecular target: Bdel1 α12.2 tagged with the CFP 1–158 fragment (rat)
[3] = molecular target: WT α12.2 tagged with the CFP 1–158 fragment (rat)
Sequence of WT α12.2 tagged with the CFP 1–158 fragment (rat) (Q02294 whole entry, the tested form may be a part): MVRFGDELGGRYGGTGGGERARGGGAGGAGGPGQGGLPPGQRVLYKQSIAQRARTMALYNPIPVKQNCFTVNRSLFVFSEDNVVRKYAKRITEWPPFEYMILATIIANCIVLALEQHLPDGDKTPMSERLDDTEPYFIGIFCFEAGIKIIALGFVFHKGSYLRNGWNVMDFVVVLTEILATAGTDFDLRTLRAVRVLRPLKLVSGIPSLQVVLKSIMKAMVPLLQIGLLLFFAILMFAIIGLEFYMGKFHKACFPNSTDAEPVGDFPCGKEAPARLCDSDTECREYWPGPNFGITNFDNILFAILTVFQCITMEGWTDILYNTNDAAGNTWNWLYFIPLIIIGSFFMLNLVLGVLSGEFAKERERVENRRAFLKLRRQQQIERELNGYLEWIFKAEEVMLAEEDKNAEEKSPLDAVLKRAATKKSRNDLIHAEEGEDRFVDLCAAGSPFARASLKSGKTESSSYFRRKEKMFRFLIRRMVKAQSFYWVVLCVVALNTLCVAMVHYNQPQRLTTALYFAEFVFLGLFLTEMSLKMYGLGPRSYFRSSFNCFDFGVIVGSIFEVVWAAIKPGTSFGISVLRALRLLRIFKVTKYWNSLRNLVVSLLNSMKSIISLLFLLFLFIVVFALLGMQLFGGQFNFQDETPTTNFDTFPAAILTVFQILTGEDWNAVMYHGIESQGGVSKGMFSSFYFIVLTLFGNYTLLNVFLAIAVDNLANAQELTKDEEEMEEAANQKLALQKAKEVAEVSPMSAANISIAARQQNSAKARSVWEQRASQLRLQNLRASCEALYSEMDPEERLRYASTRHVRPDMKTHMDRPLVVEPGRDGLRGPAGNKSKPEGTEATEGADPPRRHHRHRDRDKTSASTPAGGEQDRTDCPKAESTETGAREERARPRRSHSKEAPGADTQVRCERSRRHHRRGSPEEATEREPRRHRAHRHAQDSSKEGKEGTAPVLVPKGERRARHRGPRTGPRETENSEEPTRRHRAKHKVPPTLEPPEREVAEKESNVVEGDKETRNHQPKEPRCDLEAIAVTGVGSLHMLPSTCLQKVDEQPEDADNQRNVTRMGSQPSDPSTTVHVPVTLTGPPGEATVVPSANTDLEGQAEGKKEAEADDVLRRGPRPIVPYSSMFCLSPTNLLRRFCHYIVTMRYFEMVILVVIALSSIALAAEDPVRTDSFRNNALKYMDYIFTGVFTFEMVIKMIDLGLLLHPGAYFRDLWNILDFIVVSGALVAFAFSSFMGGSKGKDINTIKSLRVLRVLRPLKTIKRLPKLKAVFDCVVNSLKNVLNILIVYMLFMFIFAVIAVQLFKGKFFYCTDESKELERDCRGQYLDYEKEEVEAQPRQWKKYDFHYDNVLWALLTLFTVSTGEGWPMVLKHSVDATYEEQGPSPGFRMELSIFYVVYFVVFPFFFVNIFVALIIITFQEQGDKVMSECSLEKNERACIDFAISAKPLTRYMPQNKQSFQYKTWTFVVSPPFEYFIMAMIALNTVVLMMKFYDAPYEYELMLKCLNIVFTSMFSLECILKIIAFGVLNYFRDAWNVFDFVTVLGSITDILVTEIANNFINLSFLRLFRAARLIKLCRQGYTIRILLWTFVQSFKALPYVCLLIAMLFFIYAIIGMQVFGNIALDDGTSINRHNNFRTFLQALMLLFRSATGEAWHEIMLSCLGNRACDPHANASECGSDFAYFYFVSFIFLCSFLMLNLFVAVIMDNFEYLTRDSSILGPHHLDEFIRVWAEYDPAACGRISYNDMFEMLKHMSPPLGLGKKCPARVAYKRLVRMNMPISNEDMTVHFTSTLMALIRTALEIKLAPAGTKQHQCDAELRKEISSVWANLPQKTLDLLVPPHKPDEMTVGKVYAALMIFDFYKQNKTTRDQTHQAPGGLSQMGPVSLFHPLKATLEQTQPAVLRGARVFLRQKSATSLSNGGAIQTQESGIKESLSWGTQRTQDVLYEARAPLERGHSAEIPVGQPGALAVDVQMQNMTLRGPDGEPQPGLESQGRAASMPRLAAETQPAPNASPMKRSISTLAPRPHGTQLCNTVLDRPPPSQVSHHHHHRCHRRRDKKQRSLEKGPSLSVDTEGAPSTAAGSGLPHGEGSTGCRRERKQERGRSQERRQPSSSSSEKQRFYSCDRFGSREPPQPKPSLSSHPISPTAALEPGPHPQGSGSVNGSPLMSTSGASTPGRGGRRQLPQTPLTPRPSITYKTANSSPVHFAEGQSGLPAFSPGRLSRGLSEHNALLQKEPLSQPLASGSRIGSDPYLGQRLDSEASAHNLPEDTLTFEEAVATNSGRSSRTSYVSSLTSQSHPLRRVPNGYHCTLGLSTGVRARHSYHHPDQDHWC

- median ratio of cyan (BiFC) to red fluorescence [1]: 0.32
- median ratio of cyan (BiFC) to red fluorescence [2]: 0.77
- median ratio of cyan (BiFC) to red fluorescence [3]: 0.23
Substance: β3-core tagged with the CFP 159–238 fragment (from UniProt P54287 16-366) (domain or fragment)
